From patent US20210069338A1 come the findings set out here.

For assay [1], the target named is PEG3-PYY(PEG3-Cys-4Abu-Dig) / PEG3-IK(PEG3-Cys-4Abu-Dig)-Pqa-…-MeArg-Y-NH2. Briefly: mass spectrometry of the covalent disulfide conjugate, 2:1 peptide to antibody, 1 mM GSH / 5 mM GSSG.
Assay [2] deals with Ac-PYY(PEG3-Cys-4Abu-NH2) / Ac-IK(PEG3-Cys-4Abu-NH2)-Pqa-…-MeArg-Y-NH2. Put plainly: mass spectrometry, non-haptenylated peptide 2.1:1 to antibody.
The target of assay [3] is Ac-PYY(PEG3-Cys-4Abu-Dig) / Ac-IK(PEG3-Cys-4Abu-Dig)-Pqa-…-MeArg-Y-NH2. Put plainly: mass spectrometry of the covalent disulfide conjugate, 2:1 peptide to antibody, no redox agents.
Assay [4] addresses Ac-PYY(PEG3-Cys-PEG2-5-Fluo) / Ac-IK(PEG3-Cys-PEG2-5-Fluo)-Pqa-…-MeArg-Y-NH2. Put plainly: mass spectrometry of the covalent disulfide conjugate, 2.5:1 peptide to antibody, no redox agents.
Assay [5] has as its target helicar motif amino acid sequence cysteine variant 2, …(5-Fluo)-OH x TFA. Briefly: covalent disulfide coupling, 2.5 molar excess of peptide.

B1: humanized anti-digoxigenin antibody VH52bC (antibody, from a related filing, V domains shown)
VH: QVQLVESGGGLVKPGGSLRLSCAASGFTFSDYAMSWIRQAPGKGLEWVSSINICATYIYYADSVKGRFTISRDNAKNSLYLQMNSLRAEDTAVYYCARPGSPYEYDKAYYSMAYWGQGTTVTVSS
VL: DIQMTQSPSSLSASVGDRVTITCRASQDIKNYLNWYQQKPGKAPKLLIYYSSTLLSGVPSRFSGSGSGTDFTLTISSLQPEDFATYYCQQSITLPPTFGCGTKVEIK
B1: in assay [1], the % of detected species = antibody coupled to 1 peptide molecule worked out at 46%, the % of detected species = antibody coupled to 2 peptide molecules was found to be 43% and the % of detected species = uncoupled antibody was found to be 11%. In assay [2], this molecule gave a % of detected species = antibody coupled to 1 peptide molecule of 51%, a % of detected species = antibody coupled to 2 peptide molecules of 17% and a % of detected species = uncoupled antibody of 32%. Also, in assay [3], the % of detected species = antibody coupled to 1 peptide molecule was determined as 40%, the % of detected species = antibody coupled to 2 peptide molecules was found to be 7.4% and the % of detected species = uncoupled antibody stood at 52%.

B2: humanized anti-digoxigenin antibody (antibody, from a related filing, V domains shown)
VH: QVQLVESGGGLVKPGGSLRLSCAASGFTFSDYAMSWIRQAPGKGLEWVSSINIGATYIYYADSVKGRFTISRDNAKNSLYLQMNSLRAEDTAVYYCARPGSPYEYDKAYYSMAYWGQGTTVTVSS
VL: DIQMTQSPSSLSASVGDRVTITCRASQDIKNYLNWYQQKPGKAPKLLIYYSSTLLSGVPSRFSGSGSGTDFTLTISSLQPEDFATYYCQQSITLPPTFGGGTKVEIK
As for B2, the % of detected species = uncoupled antibody in assay [2] was 100%.

B3: anti-fluorescein antibody VH52bC (antibody, V domains shown)
VH: GVKLDETGGGLVQPGGAMKLSCVTSGFTFGHYWMNWVRQSPEKGLEWVAQFRNCPYNYETYYSDSVKGRFTISRDDSKSSVYLQMNNLRVEDTGIYYCTGASYGMEYLGQGTSVTVSS
VL: DVVMTQTPLSLPVSLGDQASISCRSSQSLVHSNGNTYLRWYLQKPGQSPKVLIYKVSNRVSGVPDRFSGSGSGTDFTLKINRVEAEDLGVYFCSQSTHVPWTFGGGTKLEIK
Turning to B3, in assay [4], the % of detected species = antibody coupled to 1 peptide molecule stood at 5% and the % of detected species = antibody coupled to 2 peptide molecules was 95%.

B4: anti-fluorescein antibody VH28C (antibody, from a related filing, V domains shown, part only)
VH: GVKLDETGGGLVQPGGAMKLSCVTSGFCFGHYWMNWVRQSPEKGLEWVAQFRNKPYNYETYYSDSVKGRFTISRDDSKSSVYLQMNNLRVEDTGIYYCTGASYGMEYLGQGTSVTVSS
VL: DVVMTQTPLSLPVSLGDQASISCRSSQSLVHSNGNTYLRWYLQKPGQSPKVLIYKVSNRVSGVPDRFSGSGSGTDFTLKINRVEAEDLGVYFCSQSTHVPWTFGGGTKLEIK
In turn, B4 displayed a % of detected species = antibody coupled to 2 peptide molecules in assay [4] of 100%.

B5: anti-helicar motif amino acid sequence antibody (0155), light chain variable domain N55C variant (antibody, V domains shown)
V domain 1: QAVVTQEPSLTVSPGGTVTLTCGSSTGAVTTSNYASWVQQKPGQAFTGLIGGTNNRAPWTPARFSGSLLGGKAALTLSGAQPEDEAEYYCALWYSNHWVFGGGTKLTVL
V domain 2: DAVVTQESALTTSPGETVTLTCRSSTGAVTTSNYASWVQEKPDHLFTGLIGGTNCRAPGVPARFSGSLIGDKAALTITGAQTEDEAIYFCALWYSNHWVFGGGTKLTVL
In assay [5], B5 returned a % of antibody covalently conjugated to one helicar motif amino acid sequence of 40%, a % of antibody covalently conjugated to two helicar motif amino acid sequences of 43% and a % of antibody not conjugated of 17%.
